What all share (assay): EC50 of free RNA motif oligo competing protein binding to immobilised probe
One series has as its target T1, ERI3 (UniProt O43414).
T1 sequence: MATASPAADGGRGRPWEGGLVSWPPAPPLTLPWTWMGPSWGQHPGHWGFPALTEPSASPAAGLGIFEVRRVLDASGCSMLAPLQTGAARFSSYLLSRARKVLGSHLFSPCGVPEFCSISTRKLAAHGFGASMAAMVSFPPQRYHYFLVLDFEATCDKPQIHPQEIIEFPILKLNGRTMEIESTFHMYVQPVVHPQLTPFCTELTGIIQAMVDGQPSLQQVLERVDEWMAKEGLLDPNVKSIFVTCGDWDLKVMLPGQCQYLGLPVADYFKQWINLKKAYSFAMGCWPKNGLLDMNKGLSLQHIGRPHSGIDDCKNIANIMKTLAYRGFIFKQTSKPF
In a few lines:
(§1)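 HEK293-FT lysate (2.5 mg protein/well) was pre-incubated 1 h at 4°C with free RNA oligos (0 nM to 30 μM), then 30 min at 4°C with the same 5′-amino-C6 oligos coupled to NHS-Sepharose beads. Bound proteins were quantified by label-free LC-MS/MS in three biological replicates and two independent experiments, and normalised to the water control. EC50 came from a four-parameter log-logistic fit; Kd is EC50 times a protein-dependent depletion factor.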

In a further series the target is SF3B6 (UniProt Q9Y3B4). In a few lines: as §1
In another series the target is CPSF4 (UniProt O95639). The essentials: as §1
Another series concerns the target T2, CPSF7 (UniProt Q8N684).
T2 sequence: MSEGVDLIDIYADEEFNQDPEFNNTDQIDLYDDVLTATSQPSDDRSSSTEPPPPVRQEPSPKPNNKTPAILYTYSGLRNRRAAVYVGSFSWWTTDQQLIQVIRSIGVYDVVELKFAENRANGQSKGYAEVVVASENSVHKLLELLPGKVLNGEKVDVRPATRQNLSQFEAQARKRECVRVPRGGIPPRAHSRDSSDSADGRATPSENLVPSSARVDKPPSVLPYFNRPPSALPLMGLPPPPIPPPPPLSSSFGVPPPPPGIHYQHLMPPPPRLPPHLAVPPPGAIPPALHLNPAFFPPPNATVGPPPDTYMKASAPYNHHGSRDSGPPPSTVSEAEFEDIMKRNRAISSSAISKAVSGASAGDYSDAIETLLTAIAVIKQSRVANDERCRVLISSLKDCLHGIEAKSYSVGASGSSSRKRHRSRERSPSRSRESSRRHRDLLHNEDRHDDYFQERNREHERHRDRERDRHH
In a few lines:
as §1

The next series has as its target T3, RBM47 (UniProt A0AV96).
T3 sequence: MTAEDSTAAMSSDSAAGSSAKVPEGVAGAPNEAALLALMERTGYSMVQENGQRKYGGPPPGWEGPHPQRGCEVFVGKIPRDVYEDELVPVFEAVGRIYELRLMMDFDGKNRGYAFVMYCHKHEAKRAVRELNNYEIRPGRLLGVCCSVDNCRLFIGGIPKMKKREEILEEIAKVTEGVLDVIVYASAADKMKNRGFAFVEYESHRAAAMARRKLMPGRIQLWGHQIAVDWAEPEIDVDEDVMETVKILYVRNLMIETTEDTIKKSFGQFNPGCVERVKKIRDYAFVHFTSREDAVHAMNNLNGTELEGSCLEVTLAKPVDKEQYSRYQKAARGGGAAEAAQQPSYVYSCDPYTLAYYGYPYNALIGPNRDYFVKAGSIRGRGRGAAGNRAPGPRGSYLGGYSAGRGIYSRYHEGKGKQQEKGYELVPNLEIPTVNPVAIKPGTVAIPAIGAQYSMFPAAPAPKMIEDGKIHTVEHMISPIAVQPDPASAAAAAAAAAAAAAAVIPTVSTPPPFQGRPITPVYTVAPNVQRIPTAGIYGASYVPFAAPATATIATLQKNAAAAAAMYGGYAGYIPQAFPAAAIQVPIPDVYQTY
The essentials:
as §1

The next series concerns the target T4, C1QBP (UniProt Q07021).
T4 sequence: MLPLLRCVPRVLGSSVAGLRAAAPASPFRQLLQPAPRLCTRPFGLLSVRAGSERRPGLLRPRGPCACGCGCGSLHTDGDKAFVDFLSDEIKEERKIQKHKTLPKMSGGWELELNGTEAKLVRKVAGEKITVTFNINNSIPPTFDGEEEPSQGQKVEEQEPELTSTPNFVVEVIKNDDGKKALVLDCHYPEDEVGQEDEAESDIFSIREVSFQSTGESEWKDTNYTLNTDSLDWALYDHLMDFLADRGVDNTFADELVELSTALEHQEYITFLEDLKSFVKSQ
The essentials: as §1

The next series addresses T5, ANGEL2 (UniProt Q5VTE6).
T5 sequence: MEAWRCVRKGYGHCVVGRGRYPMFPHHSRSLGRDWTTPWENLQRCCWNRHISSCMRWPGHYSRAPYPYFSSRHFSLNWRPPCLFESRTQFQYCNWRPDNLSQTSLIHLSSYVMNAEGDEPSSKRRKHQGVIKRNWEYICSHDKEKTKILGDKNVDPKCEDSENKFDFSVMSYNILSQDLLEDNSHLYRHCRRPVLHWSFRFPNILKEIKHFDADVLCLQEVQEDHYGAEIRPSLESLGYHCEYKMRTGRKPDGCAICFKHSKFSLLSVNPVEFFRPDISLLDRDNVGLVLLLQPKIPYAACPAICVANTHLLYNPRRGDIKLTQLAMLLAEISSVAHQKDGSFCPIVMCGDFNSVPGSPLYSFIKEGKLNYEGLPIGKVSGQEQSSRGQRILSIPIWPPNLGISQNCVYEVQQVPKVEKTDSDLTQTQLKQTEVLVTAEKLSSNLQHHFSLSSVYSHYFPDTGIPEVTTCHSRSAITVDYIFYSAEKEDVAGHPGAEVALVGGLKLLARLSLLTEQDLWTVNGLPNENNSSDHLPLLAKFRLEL
The essentials: as §1

The target of a further series is MRPL53 (UniProt Q96EL3). The essentials:
as §1

In another series the target is MRPL19 (UniProt P49406). The essentials: as §1

pEC50: −log10 of the molar value.

From the supplement of paper PMC6379048 come the findings set out here.

CPSF4, sequence (O95639 whole entry): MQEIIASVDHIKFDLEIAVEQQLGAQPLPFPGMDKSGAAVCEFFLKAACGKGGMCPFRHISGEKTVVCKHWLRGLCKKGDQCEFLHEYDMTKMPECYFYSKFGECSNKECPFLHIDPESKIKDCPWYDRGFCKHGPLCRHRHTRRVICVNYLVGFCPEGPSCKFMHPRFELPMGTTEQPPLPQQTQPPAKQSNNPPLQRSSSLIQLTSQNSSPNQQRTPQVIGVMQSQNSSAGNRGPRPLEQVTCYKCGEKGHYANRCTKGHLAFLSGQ
SF3B6, sequence (Q9Y3B4 whole entry): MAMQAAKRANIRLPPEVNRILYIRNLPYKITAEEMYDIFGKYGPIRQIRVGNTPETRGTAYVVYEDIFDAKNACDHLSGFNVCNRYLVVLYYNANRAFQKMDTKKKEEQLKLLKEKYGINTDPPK

In the case of AAUAAA, the pEC50 was 5.70 with ERI3; 5.34 with SF3B6; 7.26 with CPSF4; 5.05 in the series with CPSF7; 5.43 with RBM47; 5.83 in the series with C1QBP.
Regarding CUGUCCU, the pEC50 is 6.30 with ANGEL2, 6.99 with MRPL53 and 6.87 in the series with MRPL19.
